Measured values as given in US20150098939A1 (Sanofi, published 2015).

T1: human GPVI on platelets (human, UniProt Q9HCN6 21-339)
T1 sequence (looked up): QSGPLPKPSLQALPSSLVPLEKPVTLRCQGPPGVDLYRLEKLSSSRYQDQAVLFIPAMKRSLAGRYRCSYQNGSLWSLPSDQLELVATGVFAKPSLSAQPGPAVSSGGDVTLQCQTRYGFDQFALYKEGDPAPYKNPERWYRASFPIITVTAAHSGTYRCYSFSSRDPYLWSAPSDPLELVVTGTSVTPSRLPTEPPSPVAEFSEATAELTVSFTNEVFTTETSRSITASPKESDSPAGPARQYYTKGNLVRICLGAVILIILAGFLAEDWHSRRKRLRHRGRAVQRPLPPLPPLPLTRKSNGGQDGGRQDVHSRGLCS

T2: human GPVI protein, soluble extracellular domain (D1 and D2) (human, UniProt Q9HCN6 21-267)
T2 construct: extracellular domain; also called hGPVI; human glycoprotein VI
T2 sequence (looked up): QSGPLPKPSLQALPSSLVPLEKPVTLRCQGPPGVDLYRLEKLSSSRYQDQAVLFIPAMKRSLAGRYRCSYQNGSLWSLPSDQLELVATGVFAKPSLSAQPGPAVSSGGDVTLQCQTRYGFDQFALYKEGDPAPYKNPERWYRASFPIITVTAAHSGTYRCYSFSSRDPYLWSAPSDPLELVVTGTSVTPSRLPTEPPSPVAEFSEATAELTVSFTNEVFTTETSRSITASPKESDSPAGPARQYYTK


How the values were obtained:
hGPVI-hFc fusion protein [1] = biological target: T3, hGPVI-hFc fusion protein (human); experiment: DELFIA competition assay: Fab preincubated with GPVI-Fc (3 µg/ml), binding to collagen-coated plate, Test 1
T3 construct: also called GPVI-Fc; human GPVI-Fc fusion protein
Protocol: (§1) Collagen coated 384 well plates (Pierce) were blocked with 3% BSA for 2 h. Increasing concentrations of anti GPVI Fab fragments (0.3-20 μg/ml) were incubated with recombinant GPVI (Fusion protein of the extracellular domain of GPVI and Fc-Part of human IgG; 3 μg/ml). The GPVI-Fab mixture was added to collagen coated plates and incubated for 1 h at RT. 384 well plates were washed (DELFIA wash buffer, Perkin Elmer) five times and Eu-labelled anti-human IgG (100 ng/ml Perkin Elmer) was added. Following 1 h incubation at room temperature plates were washed again five times, enhancement solution (Perkin Elmer) was added and incubated for 10 min. Fluorescence was detected at 360/612 nm using a Tecan Ultra reader. Shown in Table 15 are examples of the inhibitory effect of recombinantly produced anti-GPVI Fab fragments on GPVI collagen binding.

human GPVI on platelets = biological target: T1, human GPVI on platelets; experiment: cell-based or functional assay
[2] = biological target: T2, human GPVI protein, soluble …; experiment: SPR (Biacore 3000), human GPVI immobilised, Fab analyte
Protocol: Surface plasmon resonance technology on a Biacore 3000 (GE Healthcare) was used for detailed kinetic characterisation of purified antibody fragments. An assay with immobilised human GPVI was used. Typically, 300 RU of GPVI were immobilised on a research grade CM5 chip by amine reactive coupling, resulting in an Rmax of 200 RU for the bound antibody fragment. Binding kinetics were measured over a concentration range between 3.2 to 112 nM in HBS-EP (10 mM HEPES pH 7.4, 150 mM NaCl, 3 mM EDTA, 0.005% Surfactant P20) at a flow rate of 30 μl/min. Chip surfaces were regenerated with 10 mM glycine pH2.0. Kinetic parameters were analysed and calculated in the BIAevaluation program package (version 4.1) using a flow cell without immobilised GPVI as reference. A 1:1 binding model with mass transfer was applied for a global fit of the data for curves corresponding to analyte concentrations from 3-56 nM of Fab fragment.
Note that the Biacore assay used to measure the data in this example is different in terms of immobilized binding partner (GPVI versus the mAb/Fab fragment) and this leads to the different Biacore affinities as reported in Table 5.

hGPVI-hFc fusion protein [3] = biological target: T3, hGPVI-hFc fusion protein; experiment: DELFIA competition assay: Fab preincubated with GPVI-Fc (3 µg/ml), binding to collagen-coated plate, Test 2
Protocol: as §1

hGPVI-hFc fusion protein [4] = biological target: T3, hGPVI-hFc fusion protein; experiment: DELFIA competition assay: Fab preincubated with GPVI-Fc (3 µg/ml), binding to collagen-coated plate, Test 3
Protocol: as §1

| Binder | IC50 (hGPVI-hFc fusion protein [1]) [µg/mL] | IC50 for inhibition of collagen induced platelet aggregation (human PRP), Test 1 (human GPVI on platelets) [µg/mL] | IC50 for inhibition of collagen induced platelet aggregation (human PRP), Test 2 (human GPVI on platelets) [µg/mL] | IC50 for inhibition of collagen induced platelet aggregation (human PRP), Test 3 (human GPVI on platelets) [µg/mL] | Kd [2] [pM] | koff [2] [s⁻¹] | kon [2] [M⁻¹ s⁻¹] | IC50 (hGPVI-hFc fusion protein [3]) [µg/mL] | IC50 (hGPVI-hFc fusion protein [4]) [µg/mL] |
| --- | --- | --- | --- | --- | --- | --- | --- | --- | --- |
| humanized anti-GPVI Fab VL1/VH2 (Fab, V domains shown, Recombinant Fab: VH fused to CH1 of human IGHG1 (Q569F4), HC ends in DKTHT; VL fused to human constant kappa (Q502W4); also called VL1 with VH2) VH: QVQLQESGPGLVAPSQSLSITCTVSGFSLTGYGVNWVRQPPSRGLEWLGMIWGDGSTDYQSTLKSRLSISKDNSKSQVFLKMNSLTTDDTARYYCARDLPMDYWGQGTSVTVSS VL: DIQMTQSPSSLSASVGGRVTITCKASQDINKYIAWYQHKPGKGPSLLIHYTSTLQPGVPSRFSGSGSGRDYSFSISNLQPEDIATYYCLQYANLLTFGGGTKLEIKR | 1.17 | 2.3 | 2 | 1.1 | 200 | 3e-05 | 113000 | 0.82 |  |
| humanized anti-GPVI Fab VL1/VH3 (Fab, V domains shown, Recombinant Fab: VH fused to CH1 of human IGHG1 (Q569F4), HC ends in DKTHT; VL fused to human constant kappa (Q502W4); also called VL1 with VH3) VH: EVQLLESGPGLVAPSGSLSITCTVSGFSLTGYGVNWVRQPPGKGLEWLGMIWGDGSTDYQSTLKSRLSISKDNSKSQVFLKMNSLRTDDTARYYCARDLPMDYWGLGTSVTVSS VL: DIQMTQSPSSLSASVGGRVTITCKASQDINKYIAWYQHKPGKGPSLLIHYTSTLQPGVPSRFSGSGSGRDYSFSISNLQPEDIATYYCLQYANLLTFGGGTKLEIKR | 0.63 | 1.7 | 1.5 | 1.5 | 100 | 2e-05 | 148000 | 1.24 | 0.87 |
| humanized anti-GPVI Fab VL3/VH4 (Fab, V domains shown, Recombinant Fab: VH fused to CH1 of human IGHG1 (Q569F4), HC ends in DKTHT; also called VL3 with VH4) VH: QVQLQESGPGLVAPSQSLSITCTVSGFSLTYYGVNWVRQPPSRGLEWLGMIWGDGSTDYQSTLKSRLSISKDNSKSQVFLKMNSLTTDDTARYYCARDLPMDYWGQGTSVTVSS VL: DIQMTQSPSSLSASVGGRVTITCKASQDINKYIAWYQHKPGKGPSLLIHYTSTLQPGVPSRFSGSGSGRDYSFSISNLQPEDIATYYCLQYALLLTFGGGTKLEIKR | 0.72 | 1 | 2.3 | 2 | 300 | 4e-05 | 151000 | 0.72 | 1.02 |
| humanized anti-GPVI Fab VL1/VH4 (Fab, V domains shown, Recombinant Fab: VH fused to CH1 of human IGHG1 (Q569F4), HC ends in DKTHT; VL fused to human constant kappa (Q502W4); also called VL1 with VH4) VH: QVQLQESGPGLVAPSQSLSITCTVSGFSLTYYGVNWVRQPPSRGLEWLGMIWGDGSTDYQSTLKSRLSISKDNSKSQVFLKMNSLTTDDTARYYCARDLPMDYWGQGTSVTVSS VL: DIQMTQSPSSLSASVGGRVTITCKASQDINKYIAWYQHKPGKGPSLLIHYTSTLQPGVPSRFSGSGSGRDYSFSISNLQPEDIATYYCLQYANLLTFGGGTKLEIKR | 1.01 | 1.6 | 1.8 | 1.2 | 200 | 2e-05 | 124000 | 1.14 | 1.06 |
| humanized anti-GPVI Fab VL1/VH5 (Fab, V domains shown, Recombinant Fab: VH fused to CH1 of human IGHG1 (Q569F4), HC ends in DKTHT; VL fused to human constant kappa (Q502W4); also called VL1 with VH5) VH: QVQLQESGPGLVAPSQSLSITCTVSGFSLTGYGVNWVRQPPSRGLEWLGMIWGDGSTDYQSTLKSRLSISKDNSKSQVFLKMNSLTTDDTARYYCARDLPMDEWGQGTSVTVSS VL: DIQMTQSPSSLSASVGGRVTITCKASQDINKYIAWYQHKPGKGPSLLIHYTSTLQPGVPSRFSGSGSGRDYSFSISNLQPEDIATYYCLQYANLLTFGGGTKLEIKR | 1.41 | 1.9 | 2.3 | 1.2 | 400 | 3e-05 | 81000 | 1.58 | 1.24 |
| humanized anti-GPVI Fab VL3/VH2 (Fab, V domains shown, Recombinant Fab: VH fused to CH1 of human IGHG1 (Q569F4), HC ends in DKTHT; VL fused to human constant kappa (Q502W4); also called VL3 with VH2) VH: QVQLQESGPGLVAPSQSLSITCTVSGFSLTGYGVNWVRQPPSRGLEWLGMIWGDGSTDYQSTLKSRLSISKDNSKSQVFLKMNSLTTDDTARYYCARDLPMDYWGQGTSVTVSS VL: DIQMTQSPSSLSASVGGRVTITCKASQDINKYIAWYQHKPGKGPSLLIHYTSTLQPGVPSRFSGSGSGRDYSFSISNLQPEDIATYYCLQYALLLTFGGGTKLEIKR | 0.67 | 1.9 | 0.9 | 2.1 | 200 | 3e-05 | 132000 | 0.9 | 1.04 |
| humanized anti-GPVI Fab VL1/VH1 (Fab, V domains shown, Recombinant Fab: VH fused to CH1 of human IGHG1 (Q569F4), HC ends in DKTHT; VL fused to human constant kappa (Q502W4); also called VL1 with VH1) VH: QVQLQESGPGLVAPSQSLSITCTVSGFSLTGYGVNWVRQPPSRGLEWLGMIWGDGSTDYQSTLKSRLSISKDTSKSQVFLKMNSLTTDDTARYYCARDLPMDYWGQGTSVTVSS VL: DIQMTQSPSSLSASVGGRVTITCKASQDINKYIAWYQHKPGKGPSLLIHYTSTLQPGVPSRFSGSGSGRDYSFSISNLQPEDIATYYCLQYANLLTFGGGTKLEIKR | 1.1 | 1.5 | 2.3 |  | 400 | 4e-05 | 111000 | 0.75 | 1 |
| humanized anti-GPVI Fab VL2/VH2 (Fab, V domains shown, Recombinant Fab: VH fused to CH1 of human IGHG1 (Q569F4), HC ends in DKTHT; VL fused to human constant kappa (Q502W4); also called VL2 with VH2) VH: QVQLQESGPGLVAPSQSLSITCTVSGFSLTGYGVNWVRQPPSRGLEWLGMIWGDGSTDYQSTLKSRLSISKDNSKSQVFLKMNSLTTDDTARYYCARDLPMDYWGQGTSVTVSS VL: DIQMTQSPSSLSASVGGRVTITCKASQDINKYIAWYQHKPGKGPSLLIHYTSTLQPGVPSRFSGSGSGRDYSFSISNLQPEDIATYYCLQYAHLLTFGGGTKLEIKR | 0.81 | 1.4 | 2.4 | 2.3 | 300 | 3e-05 | 108000 | 0.73 | 1.05 |
